Measurements from patent publication CN116836273A.

Columns and labels:
[1] = target: 血清淀粉样蛋白A (Serum amyloid A, SAA) (UniProt P0DJI8); test: BLI, antibody captured on AMC sensor, SAA in solution
[2] = target: 血清淀粉样蛋白A (Serum amyloid A, SAA) (UniProt P0DJI8); test: indirect ELISA, SAA coated at 2 ug/ml, antibody at 15 ng/ml
[3] = target: 血清淀粉样蛋白A (Serum amyloid A, SAA) (UniProt P0DJI8); test: indirect ELISA, SAA coated at 2 ug/ml, antibody at 30 ng/ml
[4] = target: 血清淀粉样蛋白A (Serum amyloid A, SAA) (UniProt P0DJI8); test: indirect ELISA, SAA coated at 2 ug/ml, antibody at 60 ng/ml
[5] = target: 血清淀粉样蛋白A (Serum amyloid A, SAA) (UniProt P0DJI8); test: indirect ELISA, SAA coated at 2 ug/ml, antibody at 7.5 ng/ml
[6] = target: 血清淀粉样蛋白A (Serum amyloid A, SAA) (UniProt P0DJI8); test: indirect ELISA, SAA coated at 2 ug/ml, antibody at 3.75 ng/ml
[7] = target: 血清淀粉样蛋白A (Serum amyloid A, SAA) (UniProt P0DJI8); test: indirect ELISA, SAA coated at 2 ug/ml, antibody at 0 ng/ml (blank)

UniProt P0DJI8, sequence (P0DJI8 19-122 limits assumed): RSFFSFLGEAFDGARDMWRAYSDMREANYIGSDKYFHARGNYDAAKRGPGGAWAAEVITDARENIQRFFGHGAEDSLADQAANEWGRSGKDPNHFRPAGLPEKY

- Kd [1]: 7.98 nM
- koff [1]: 9.82e-05 s⁻¹
- kon [1]: 12300 M⁻¹ s⁻¹
- OD (OD450 (ref. 630 nm)) [2]: 0.912
- OD (OD450 (ref. 630 nm)) [3]: 1.63
- OD (OD450 (ref. 630 nm)) [4]: 1.79
- OD (OD450 (ref. 630 nm)) [5]: 0.562
- OD (OD450 (ref. 630 nm)) [6]: 0.316
- OD (OD450 (ref. 630 nm)) [7]: 0.009
Substance: 对照 (control antibody)
